Ends that are not written are not given here.
Tests used:
A1PI [1] = molecular target: T1, A1PI (Homo sapiens, UniProt P01009); assay: A1PI yield from dialyzed (aqueous) Effluent II+III; format: binding; conditions: 4° C.
T1 construct: Human plasma is currently the only approved source of therapeutic AlPI
Outline: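 Effluent II+III was dialyzed at 4° C against equilibration buffer (15,000 MWCO) to remove ethanol. It was then applied under the same binding conditions as neat feed, and A1PI was tracked by nephelometry in the 1M NaCl and acid eluates.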

A1PI [2] = molecular target: T1, A1PI; assay: A1PI purification from 5 mg hSA + 1 mg A1PI on peptide column, A1PI mass balance; format: binding; conditions: for Mass AlPI Eluted in Acid Eluate: nephelometry; for Mass Protein per Eluate Fraction, 1M NaCl / Mass Protein per Eluate Fraction, 2% Ac. Acid / Mass Protein per Eluate Fraction, 3M NaCl / Mass Protein per Eluate Fraction, Flow / Percent Eluted by Fraction, 1M NaCl / Percent Eluted by Fraction, 2% Ac. Acid / Percent Eluted by Fraction, 3M NaCl / Percent Eluted by Fraction, Flow / Mass Protein per Eluate Fraction, 2% Acetic Acid / Percent Eluted by Fraction, 2% Acetic Acid: A1PI, 5 mg hSA + 1 mg A1PI; for Mass Protein per Eluate Fraction, 1M NaCl / Mass Protein per Eluate Fraction, 2% Ac. Acid / Mass Protein per Eluate Fraction, 3M NaCl / Mass Protein per Eluate Fraction, Flow / Mass Protein per Eluate Fraction, 2% Acetic Acid: * Below detection limit
Outline: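 Peptides on A-Totda-Toyopearl resin (0.1 mmole/g) in 0.4×5 cm columns; 5 mg hSA + 1 mg A1PI loaded at 4 °C or 20 °C with 10 min residence (17 μl/min). Steps of 1M and 3M NaCl, then 2% acetic acid; fractions quantified by immunonephelometry for mass balance.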

A1PI [3] = molecular target: T1, A1PI; assay: A1PI binding on peptide-resin column, injection of 1 mg A1PI in equilibration buffer; conditions: for % of Total A1PI Eluted by Fraction (Based on Absorbance at 280 nm), 1M NaCl / % of Total A1PI Eluted by Fraction (Based on Absorbance at 280 nm), 2% Acetic Acid / % of Total A1PI Eluted by Fraction (Based on Absorbance at 280 nm), Flowthrough: 1 mg A1PI
Outline: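 Peptides synthesized on A-Totda-Toyopearl chelate resin (0.1 mmole/g) packed in 0.4×5 cm columns; 1 mg A1PI injected in equilibration buffer at 4 °C or 20 °C, 865 or 523 μl/min. Flowthrough, 1M/3M NaCl washes and 2% acetic acid eluate quantified by A280 or immunonephelometry as percent of total eluted.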

[4] = 1 ml dialyzed Eff. II+III (ethanol removed)
[5] = A1PI, 1 ml dialyzed Eff. II+III
[6] = 4° C., relative to total eluted
[7] = 20° C., relative to total eluted
[8] = Table 10, 4° C., relative to total loaded
[9] = Table 10, 20° C., relative to total loaded
[10] = 1 mg A1PI in equilibration buffer, 4° C.
[11] = 1 mg A1PI in equilibration buffer, 20° C.
[12] = VIWLVR N-terminal point mutations, 4° C.

T1 sequence (P01009 25-418): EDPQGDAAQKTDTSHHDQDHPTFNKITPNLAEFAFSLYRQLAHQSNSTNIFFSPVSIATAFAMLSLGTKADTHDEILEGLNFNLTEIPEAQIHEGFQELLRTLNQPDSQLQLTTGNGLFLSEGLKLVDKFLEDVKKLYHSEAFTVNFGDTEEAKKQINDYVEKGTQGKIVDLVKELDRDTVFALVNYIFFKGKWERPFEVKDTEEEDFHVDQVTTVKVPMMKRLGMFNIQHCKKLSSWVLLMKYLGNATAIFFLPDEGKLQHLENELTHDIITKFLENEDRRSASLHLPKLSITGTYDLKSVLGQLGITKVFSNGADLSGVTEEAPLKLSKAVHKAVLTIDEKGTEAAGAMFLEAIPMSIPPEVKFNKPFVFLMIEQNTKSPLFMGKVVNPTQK

- Mass A1PI per Eluate Fraction, 1M NaCl (A1PI [1]; [4]): 0.15 mg
- Mass A1PI per Eluate Fraction, 2% Acetic Acid (A1PI [1]; [4]): 0.23 mg
- Mass A1PI per Eluate Fraction, Flowthrough (A1PI [1]; [4]): 0.24 mg
- Percent Eluted by Fraction, 1M NaCl (A1PI [1]; [5]): 24%
- Percent Eluted by Fraction, 2% Acetic Acid (A1PI [1]; [5]): 37%
- Percent Eluted by Fraction, Flowthrough (A1PI [1]; [5]): 39%
- Mass AlPI Eluted in Acid Eluate (A1PI [2]; 250 μg AlPI injected with 5 mg hSA, 20° C.): 0.18 mg
- Mass AlPI Eluted in Acid Eluate (A1PI [2]; 500 μg AlPI injected with 5 mg hSA, 20° C.): 0.48 mg
- Mass AlPI Eluted in Acid Eluate (A1PI [2]; 1000 μg AlPI injected with 5 mg hSA, 20° C.): 0.70 mg
- Mass Protein per Eluate Fraction, 1M NaCl (A1PI [2]; 4° C.): 0.20 mg
- Mass Protein per Eluate Fraction, 2% Ac. Acid (A1PI [2]; 4° C.): 0.27 mg
- Mass Protein per Eluate Fraction, 3M NaCl (A1PI [2]; 4° C.): 0.01 mg
- Mass Protein per Eluate Fraction, Flow (A1PI [2]; 4° C.): 0.29 mg
- Percent Eluted by Fraction, 1M NaCl (A1PI [2]; [6]): 26%
- Percent Eluted by Fraction, 2% Ac. Acid (A1PI [2]; [6]): 35%
- Percent Eluted by Fraction, 3M NaCl (A1PI [2]; [6]): 1%
- Percent Eluted by Fraction, Flow (A1PI [2]; [6]): 38%
- Mass Protein per Eluate Fraction, 1M NaCl (A1PI [2]; 20° C.): 0.08 mg
- Mass Protein per Eluate Fraction, 2% Ac. Acid (A1PI [2]; 20° C.): 0.65 mg
- Mass Protein per Eluate Fraction, 3M NaCl (A1PI [2]; 20° C.): 0.02 mg
- Mass Protein per Eluate Fraction, Flow (A1PI [2]; 20° C.): 0.08 mg
- Percent Eluted by Fraction, 1M NaCl (A1PI [2]; [7]): 9%
- Percent Eluted by Fraction, 2% Ac. Acid (A1PI [2]; [7]): 80%
- Percent Eluted by Fraction, 3M NaCl (A1PI [2]; [7]): 2%
- Percent Eluted by Fraction, Flow (A1PI [2]; [7]): 9%
- Mass Protein per Eluate Fraction, 1M NaCl (A1PI [2]; Table 10, 4° C.): 0.21 mg
- Mass Protein per Eluate Fraction, 2% Acetic Acid (A1PI [2]; Table 10, 4° C.): 0.31 mg
- Mass Protein per Eluate Fraction, 3M NaCl (A1PI [2]; Table 10, 4° C.): 0.03 mg
- Mass Protein per Eluate Fraction, Flow (A1PI [2]; Table 10, 4° C.): 0.28 mg
- Percent Eluted by Fraction, 1M NaCl (A1PI [2]; [8]): 26%
- Percent Eluted by Fraction, 2% Acetic Acid (A1PI [2]; [8]): 38%
- Percent Eluted by Fraction, 3M NaCl (A1PI [2]; [8]): 4%
- Percent Eluted by Fraction, Flow (A1PI [2]; [8]): 35%
- Mass Protein per Eluate Fraction, 1M NaCl (A1PI [2]; Table 10, 20° C.): 0.08 mg
- Mass Protein per Eluate Fraction, 2% Acetic Acid (A1PI [2]; Table 10, 20° C.): 0.65 mg
- Mass Protein per Eluate Fraction, 3M NaCl (A1PI [2]; Table 10, 20° C.): 0.02 mg
- Mass Protein per Eluate Fraction, Flow (A1PI [2]; Table 10, 20° C.): 0.08 mg
- Percent Eluted by Fraction, 1M NaCl (A1PI [2]; [9]): 9%
- Percent Eluted by Fraction, 2% Acetic Acid (A1PI [2]; [9]): 80%
- Percent Eluted by Fraction, 3M NaCl (A1PI [2]; [9]): 2%
- Percent Eluted by Fraction, Flow (A1PI [2]; [9]): 9%
- Percent A1PI Eluted by Fraction Based on Absorbance at 280 nm, 1M NaCl (A1PI [3]; [10]): 25%
- Percent A1PI Eluted by Fraction Based on Absorbance at 280 nm, 2% Acetic Acid (A1PI [3]; [10]): 30%
- Percent A1PI Eluted by Fraction Based on Absorbance at 280 nm, Flowthrough (A1PI [3]; [10]): 45%
- Percent A1PI Eluted by Fraction, 1M NaCl (A1PI [3]; [11]): 26%
- Percent A1PI Eluted by Fraction, 2% Acetic Acid (A1PI [3]; [11]): 66%
- Percent A1PI Eluted by Fraction, Flowthrough (A1PI [3]; [11]): 8%
- % of Total A1PI Eluted by Fraction (Based on Absorbance at 280 nm), 1M NaCl (A1PI [3]; Trp position mutations, 4° C.): 25%
- % of Total A1PI Eluted by Fraction (Based on Absorbance at 280 nm), 2% Acetic Acid (A1PI [3]; Trp position mutations, 4° C.): 30%
- % of Total A1PI Eluted by Fraction (Based on Absorbance at 280 nm), Flowthrough (A1PI [3]; Trp position mutations, 4° C.): 45%
- % of Total A1PI Eluted by Fraction (Based on Absorbance at 280 nm), 1M NaCl (A1PI [3]; Trp position mutations, 20° C.): 26%
- % of Total A1PI Eluted by Fraction (Based on Absorbance at 280 nm), 2% Acetic Acid (A1PI [3]; Trp position mutations, 20° C.): 66%
- % of Total A1PI Eluted by Fraction (Based on Absorbance at 280 nm), Flowthrough (A1PI [3]; Trp position mutations, 20° C.): 8%
- % of Total A1PI Eluted by Fraction (Based on Absorbance at 280 nm), 1M NaCl (A1PI [3]; [12]): 25%
- % of Total A1PI Eluted by Fraction (Based on Absorbance at 280 nm), 2% Acetic Acid (A1PI [3]; [12]): 30%
- % of Total A1PI Eluted by Fraction (Based on Absorbance at 280 nm), Flowthrough (A1PI [3]; [12]): 45%
Substance: VIWLVR

From patent US5985836A, “Alpha-1 proteinase inhibitor binding peptides” (Bayer Corporation, priority 1998, dated 1999)
